Consider 1 substance from publication PMC3887093.

Broadly, the stoichiometry N is the number of molecules, sites or subunits per partner or assembly.

For this assay, the target named is Plasmodium vivax Duffy binding protein region II (DBP-RII), recombinant (Plasmodium vivax) (UniProt P22290). Kind of assay: ITC; DARC1-60 at 1.3 mM titrated into 1.4 mL of 130 µM DBP-RII; PBS; 10°C; independent two-site binding model after subtraction of both controls; molar ratios in monomers of DBP-RII.
Sequence of UniProt P22290 (P22290 211-525): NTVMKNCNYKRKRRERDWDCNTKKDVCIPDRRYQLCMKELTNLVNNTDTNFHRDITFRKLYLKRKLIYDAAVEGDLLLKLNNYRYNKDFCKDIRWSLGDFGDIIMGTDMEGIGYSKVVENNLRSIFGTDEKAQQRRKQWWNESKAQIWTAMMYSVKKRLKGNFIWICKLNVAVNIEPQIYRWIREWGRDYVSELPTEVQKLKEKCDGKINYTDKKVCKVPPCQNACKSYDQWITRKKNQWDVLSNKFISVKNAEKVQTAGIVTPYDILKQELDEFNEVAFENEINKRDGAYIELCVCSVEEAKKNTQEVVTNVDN

For the substance “DARC N-terminal ectodomain, residues 1-60, unsulfated, three cysteines mutated to alanine (from UniProt Q16570 1-60) (domain or fragment)”, the Kd1 (first binding event, heterotrimer; two independent sites fit) stood at 2180 nM; the Kd2 (second binding event, heterotetramer; two independent sites fit) was determined as 88.5 nM; the Kd of the first binding event (two independent sites fit) was found to be 2.18 µM; the dH1 (first binding event) was -11.1 kJ/mol. The dH2 (second binding event) is -14 kJ/mol; the n1 (first binding event, per monomer of DBP-RII) amounted to 0.44; the n2 (second binding event, per monomer of DBP-RII) was 0.5; the stoichiometry N worked out at 1.
